Assay results: article PMC4574351, “Tubulin cofactors and Arl2 are cage-like chaperones that regulate the soluble αβ-tubulin pool for microtubule dynamics” (eLife, 2015)

Biological target: T1, Tubulin cofactor D (TBCD), S. cerevisiae Cin1p (S. cerevisiae, UniProt P40987 1-1014)
T1 construct: Tubulin cofactor D ortholog Cin1p, S. cerevisiae, full-length cDNA; TBCD is insoluble when expressed alone; also called Yeast TBCD (cin1p); His-TBCD; source: E. coli, co-expressed with TBCE and Arl2 from polycistronic vectors; co-purified as TBC-DEG (Ni-NTA, HiTrap SP, Superdex 200); not shown: 6xHis, N-terminal, kept
T1 sequence (looked up): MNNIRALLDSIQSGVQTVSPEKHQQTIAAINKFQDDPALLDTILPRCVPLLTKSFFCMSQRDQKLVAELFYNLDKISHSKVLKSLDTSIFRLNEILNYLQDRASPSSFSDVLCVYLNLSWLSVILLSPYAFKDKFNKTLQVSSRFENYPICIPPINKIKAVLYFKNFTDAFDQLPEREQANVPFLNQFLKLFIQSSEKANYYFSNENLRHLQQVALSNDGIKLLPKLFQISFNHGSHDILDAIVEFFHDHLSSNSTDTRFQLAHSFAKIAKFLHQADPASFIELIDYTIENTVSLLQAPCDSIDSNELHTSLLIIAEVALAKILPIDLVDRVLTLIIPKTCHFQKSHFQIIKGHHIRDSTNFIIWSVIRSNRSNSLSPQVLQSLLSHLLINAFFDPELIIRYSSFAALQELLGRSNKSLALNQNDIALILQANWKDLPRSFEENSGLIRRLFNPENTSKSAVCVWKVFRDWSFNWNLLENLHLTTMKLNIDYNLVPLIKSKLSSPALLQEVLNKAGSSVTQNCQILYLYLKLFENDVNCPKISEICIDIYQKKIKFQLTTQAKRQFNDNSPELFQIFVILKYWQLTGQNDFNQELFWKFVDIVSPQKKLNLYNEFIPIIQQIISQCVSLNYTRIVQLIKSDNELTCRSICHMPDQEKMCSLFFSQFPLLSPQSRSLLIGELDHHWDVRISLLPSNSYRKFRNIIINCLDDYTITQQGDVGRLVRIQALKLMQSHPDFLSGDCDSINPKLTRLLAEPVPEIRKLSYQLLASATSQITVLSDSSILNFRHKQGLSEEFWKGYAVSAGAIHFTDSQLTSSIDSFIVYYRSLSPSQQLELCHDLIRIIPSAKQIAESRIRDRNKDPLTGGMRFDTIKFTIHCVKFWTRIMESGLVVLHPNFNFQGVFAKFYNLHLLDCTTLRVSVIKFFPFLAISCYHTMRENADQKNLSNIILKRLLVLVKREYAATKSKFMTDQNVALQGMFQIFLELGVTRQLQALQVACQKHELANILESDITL
Experiment: SEC-MALS; WTC-03S5 column; purified TBC-DEG (subunits co-expressed and co-purified), αβ-tubulin, TBCC and their complexes; ternary complex with GDP·ALFx (wild type) or GTP (Q73L)
Details: both partners purified

B1: Arl2 GTPase, S. cerevisiae Cin4p (enzyme, UniProt P39110 1-191, looked up)
chain: MGLLSIIRKQKLRDKEIRCLILGLDNSGKSTIVNKLLPKDEQNNDGIMPTVGFQIHSLMIKDVTISLWDIGGQRTLRPFWDNYFDKTQAMIWCIDVSLSMRFDETLQELKELINRDENRIGYECAVIVVLNKIDLVEDKSELHRRCLLVESELKCLFKPDIRIELVKCSGVTGEGIDNLRDRLVESCHFTQ
notes: ADP ribosylation factor-like 2 ortholog Cin4p, S. cerevisiae, full-length cDNA; Tags were not tolerated on either end of Arl2; Insoluble when expressed alone; also called Yeast Arl2 (cin4p); source: E. coli, co-expressed with TBCD and TBCE from polycistronic vectors; co-purified as TBC-DEG (Ni-NTA, HiTrap SP, Superdex 200)
For B1, which “stoichiometry N” value is on record?
Its value is 1.
